Consider 2 molecules from patent US20110312897A1, “CATHEPSIN L PROTEOLYTICALLY PROCESSES HISTONE H3 DURING MOUSE EMBRYONIC STEM CELL DIFFERENTIATION” (THE ROCKEFELLER UNIVERSITY, priority 2008, published 2011).

The test system of this data set is rH3-HIS. Briefly: H3 cleavage assay with recombinant cathepsins. The format is biochemical, mouse. On the procedure: Extracts were incubated in buffer (10 mM HEPES, 10 mM KCl, 1.5 mM MgCl2, 0.34M sucrose, 10% glycerol, 5 mM β-mercaptoethanol, all final) with 0.1 μg/μl rH3-HIS (purified from E. coli) and incubated at 37° C. for 1-3 hours. Reactions were stopped by addition of 5×SDS sample buffer and boiling; results were analyzed by immunoblotting with HIS-HRP and/or H3.cs1 antibody. For MS analysis, reactions were quenched by addition of 0.1% (final) TFA. rCathepsin L (R&D Systems, # 1515-CY-010), rCathepsin B (R&D Systems Cat No. BAF965), and rCathepsin K (Calbiochem Cat. No. 342001) were purchased from commercial sources and tested in the assay with rH3-HIS.
To further validate the identification of Cathepsin L as an H3 protease, recombinant mouse Cathepsin L enzyme was tested in the H3 cleavage assay (FIG. 5). […] To further characterize the sites of proteolytic cleavage, the reaction products of rCathepsin L and rH3-HIS were analyzed by MS. […] Also observed in both reactions were five of the six complementary N-terminal peptides generated by rCathepsin L cleavage of H3 (left), and their abundances correlated, as expected, with that of their C-terminal counterparts. […] In addition, the relative abundances of the in vivo H3 cleavage sites and those produced by Cathepsin L in vitro are highly correlative. […] Taken together, the above data support the conclusion that Cathepsin L is capable of generating all of the histone H3.2 fragments observed at day three following induction of ESC differentiation by retinoic acid.
Other cathepsin family members were then tested in the H3 cleavage assay. rCathepsin B, one of the most abundant lysosomal proteases, and rCathepsin K, which is reported to have a significant preference for leucine in the P2 position of its substrates much like Cathepsin L, were chosen to be tested first (Cathepsin S also shares this preference but was not found to have significant expression in our ESC model). Following pre-activation the recombinant enzymes, Cathepsins B, K, and L were incubated with rH3-HIS at both pH 5.5. and pH 7.5, and the reactions were then analyzed by immunoblotting with both HIS and H3.cs1 antibodies.

[1] abbreviates: pre-activated enzymes, pH 5.5 and pH 7.5.

B1: recombinant mouse Cathepsin L: recombinant mouse Cathepsin L enzyme (R&D Systems, # 1515-CY-010) (protein)
chain: TPKFDQTFSAEWHQWKSTHRRLYGTNEEEWRRAIWEKNMRMIQLHNGEYSNGQHGFSMEMNAFGDMTNEEFRQVVNGYRHQKHKKGRLFQEPLMLKIPKSVDWREKGCVTPVKNQGQCGSCWAFSASGCLEGQMFLKTGKLISLSEQNLVDCSHAQGNQGCNGGLMDFAFQYIKENGGLDSEESYPYEAKDGSCKYRAEFAVANDTGFVDIPQQEKALMKAVATVGPISVAMDASHPSLQFYSSGIYYEPNCSSKNLDHGVLLVGYGYEGTDSNKNKYWLVKNSWGSEWGMEGYIKIAKDRDNHCGLATAASYPVVN
In the case of B1, under “pH 5.5 and pH 7.4”, the “cleavage of recombinant histone H3” value is reported as “able to cleave recombinant histone H3” and the “generation of epitope recognized by H3.cs1 antibody” value is listed as “created the specific epitope”. For the same molecule, the rH3-HIS cleavage pattern result under setting [1] is “cleaves rH3-HIS robustly”.

B2: Cathepsin K: recombinant Cathepsin K (Calbiochem Cat. No. 342001) (protein, UniProt P43235 115-329, looked up)
Cathepsin K: APDSVDYRKKGYVTPVKNQGQCGSCWAFSSVGALEGQLKKKTGKLLNLSPQNLVDCVSENDGCGGGYMTNAFQYVQKNRGIDSEDAYPYVGQEESCMYNPTGKAAKCRGYREIPEGNEKALKRAVARVGPVSVAIDASLTSFQFYSKGVYYDESCNSDNLNHAVLAVGYGIQKGNKHWIIKNSWGENWGNKGYILMARNKNNACGIANLASFPKM
For B2, under setting [1], the H3.cs1 epitope production result is “less abundant”.
